Experimental data published in patent US20230111237A1 (CARLSBERG A S, published 2023).
Substitutions are numbered along the chain they refer to. In names and notes the source's numbering stands.

B1: wild type Hordeum vulgare limit dextrinase inhibitor (wt HvLDI), recombinant (other)
chain: TLESVKDECQPGVDFPHNPLATCHTYVIKRVCGRGPSRPMLVKERCCRELAAVPDHCRCEALRILMDGVRTPEGRVVEGRLGDRRDCPREEQRAFAATLVTAAECNLSSVQEPGVRLVLLADG
B2: HvLDI mutant E68K, recombinant (other)
chain: B1 chain with E44K
B3: HvLDI mutant P60L, recombinant (other)
chain: B1 chain with P36L
B4: HvLDI mutant V66M, recombinant (other)
chain: B1 chain with V42M
B5: HvLDI mutant P60S, recombinant (other)
chain: B1 chain with P36S

Target: T1, recombinant wild type Hordeum vulgare limit dextrinase (wt HvLD) (Hordeum vulgare)
T1 chain: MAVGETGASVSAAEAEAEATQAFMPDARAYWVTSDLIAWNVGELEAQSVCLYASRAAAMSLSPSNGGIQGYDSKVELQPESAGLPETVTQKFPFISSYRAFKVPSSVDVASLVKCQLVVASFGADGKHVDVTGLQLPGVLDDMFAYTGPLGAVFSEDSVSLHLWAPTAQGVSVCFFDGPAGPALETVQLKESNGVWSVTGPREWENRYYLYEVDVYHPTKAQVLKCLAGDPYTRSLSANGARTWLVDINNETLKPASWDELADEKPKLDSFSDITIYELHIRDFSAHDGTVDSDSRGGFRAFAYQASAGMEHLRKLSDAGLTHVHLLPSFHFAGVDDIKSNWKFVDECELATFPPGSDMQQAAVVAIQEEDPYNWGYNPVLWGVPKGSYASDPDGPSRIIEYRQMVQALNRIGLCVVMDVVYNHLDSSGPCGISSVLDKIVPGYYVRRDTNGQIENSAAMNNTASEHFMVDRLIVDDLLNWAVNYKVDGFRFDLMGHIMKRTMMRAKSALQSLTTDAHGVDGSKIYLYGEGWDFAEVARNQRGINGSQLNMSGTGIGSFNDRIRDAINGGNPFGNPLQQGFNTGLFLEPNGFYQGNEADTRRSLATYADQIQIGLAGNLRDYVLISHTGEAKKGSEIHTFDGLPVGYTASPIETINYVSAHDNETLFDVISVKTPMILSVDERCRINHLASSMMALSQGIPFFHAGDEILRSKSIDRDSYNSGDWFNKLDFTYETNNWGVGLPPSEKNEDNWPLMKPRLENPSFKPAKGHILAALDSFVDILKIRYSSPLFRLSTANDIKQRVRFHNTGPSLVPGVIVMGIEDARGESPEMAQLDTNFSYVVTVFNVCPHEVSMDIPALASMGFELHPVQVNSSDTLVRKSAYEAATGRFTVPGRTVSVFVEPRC
Test: cell-based or functional assay

Binder	IC50 (µM) of inhibition of HvLD activity (PullG6 assay, 1.5 µM HvLD) [µM]
B1	1.56
B2	7.1
B3	13.2
B4	15.3
B5	10.1
